Experimental findings from publication PMC6237851, “A tumor-targeted trimeric 4-1BB-agonistic antibody induces potent anti-tumor immunity without systemic toxicity” (Nature Communications, 2018) are described below.

As usually defined, the stoichiometry N is the number of molecules, sites or subunits per partner or assembly.

The data set deals with the molecule itself. Description: SDS-PAGE, reducing against non-reducing; m4-1BBL alone; about 40 kDa in reducing and about 70 kDa in non-reducing conditions (Supplementary Figure 3a).

B1: recombinant soluble mouse 4-1BBL (ligand, UniProt P41274 104-309, looked up)
chain: RTEPRPALTITTSPNLGTRENNADQVTPVSHIGCPNTTQQGSPVFAKLLAKNQASLCNTTLNWHSQDGAGSSYLSQGLRYEEDKKELVVDSPGLYYVFLELKLSPTFTNTGHKVQGWVSLVLQAKPQVDDFDNLALTVELFPCSMENKLVDRSWSQLLLLKAGHRLSVGLRAYLHGAQDAYRDWELSYPNTTSFGLFLVKPDNPWE
notes: 4-1BB ligand (4-1BBL, TNFSF9), mouse, recombinant soluble form; For the RICS imaging it was labelled with CF488A (Mix-n-Stain kit); also called m4-1BBL; 4-1BB-Ligand; source: bought: Biolegend (cat#754402)
In the case of B1, the “stoichiometry N” value was 3.
